Target: T1, ASK1-KR (human ASK1 with lysine 709 at the ATP-binding site replaced with arginine) (human, UniProt Q99683 1-1374)
T1 construct: Bait in the yeast two-hybrid screen (Brent's system); also called bait
T1 sequence (looked up): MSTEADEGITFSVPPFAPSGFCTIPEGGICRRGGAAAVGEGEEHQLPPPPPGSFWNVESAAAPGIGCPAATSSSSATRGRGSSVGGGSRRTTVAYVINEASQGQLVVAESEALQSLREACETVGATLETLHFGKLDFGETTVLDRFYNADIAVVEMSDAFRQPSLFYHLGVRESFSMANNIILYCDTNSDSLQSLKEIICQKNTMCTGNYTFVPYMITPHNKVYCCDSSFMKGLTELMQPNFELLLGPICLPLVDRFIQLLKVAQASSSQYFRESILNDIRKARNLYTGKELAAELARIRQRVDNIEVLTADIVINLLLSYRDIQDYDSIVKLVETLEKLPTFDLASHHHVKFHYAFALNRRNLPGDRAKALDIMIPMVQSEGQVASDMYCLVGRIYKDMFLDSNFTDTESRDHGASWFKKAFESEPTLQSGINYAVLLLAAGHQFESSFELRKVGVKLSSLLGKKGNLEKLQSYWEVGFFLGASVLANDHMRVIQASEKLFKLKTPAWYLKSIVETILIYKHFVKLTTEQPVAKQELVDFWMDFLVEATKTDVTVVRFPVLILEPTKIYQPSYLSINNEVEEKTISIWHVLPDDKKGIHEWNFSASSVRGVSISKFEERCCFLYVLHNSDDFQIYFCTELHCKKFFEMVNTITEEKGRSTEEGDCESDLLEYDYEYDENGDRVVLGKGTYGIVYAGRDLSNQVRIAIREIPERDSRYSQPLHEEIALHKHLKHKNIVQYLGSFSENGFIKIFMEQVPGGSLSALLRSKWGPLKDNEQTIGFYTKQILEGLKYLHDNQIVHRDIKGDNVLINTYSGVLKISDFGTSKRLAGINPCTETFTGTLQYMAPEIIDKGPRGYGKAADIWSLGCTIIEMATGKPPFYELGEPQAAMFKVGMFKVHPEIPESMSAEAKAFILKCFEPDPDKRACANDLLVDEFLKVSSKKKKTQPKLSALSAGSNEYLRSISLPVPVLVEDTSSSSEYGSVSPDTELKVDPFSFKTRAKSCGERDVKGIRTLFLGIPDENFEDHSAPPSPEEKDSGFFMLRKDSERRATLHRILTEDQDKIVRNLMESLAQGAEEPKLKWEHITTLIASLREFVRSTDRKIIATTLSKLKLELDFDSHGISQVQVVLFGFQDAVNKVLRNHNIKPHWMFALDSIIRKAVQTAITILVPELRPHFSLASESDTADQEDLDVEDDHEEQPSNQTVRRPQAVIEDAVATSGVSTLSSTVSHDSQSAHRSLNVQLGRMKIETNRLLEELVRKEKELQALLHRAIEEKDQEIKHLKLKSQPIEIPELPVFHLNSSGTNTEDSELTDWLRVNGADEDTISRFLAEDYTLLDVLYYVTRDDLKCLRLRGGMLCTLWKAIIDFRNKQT
Test: yeast two-hybrid (Brent's system), ASK1-KR as bait, fetal human brain expression library as prey; positive clone
Description: To identify the ASK1-binding protein, screening was conducted by the yeast two-hybrid method using Brent's system [Zervos et al., Cell, Vol. 72, p. 223-232, 1993; Gyuris et al., Cell, Vol. 75, p. 791-803, 1993] with ASK1-KR, prepared by replacing lysine (K) at the ATP-binding site (position 709) in the kinase domain of human ASK1 with arginine (R), as a bait and an expression library of fetal human brain origin as a prey. As a result, about 1200 positive clones were obtained. Database search of one of them based on its base sequence identified it as a portion of the protein coding region of the gene designated as “PGR1” (a portion corresponding to amino acid positions 35 to 127). […] Since this protein was identified as an ASK1-binding protein, it was designated as ASK1 binding protein 1 (ABP1).

binding result: binds
B1: ABP1 (PGR1) fragment, amino acid positions 35 to 127, positive clone of the two-hybrid screen (other)
chain: MREDIASLTREHGRAYLRNRSKLWEMDNMLIQIKTQVEASEESALNHLQNPGDAAEGRAAKRCEKAEEKAKEIAKMAEMLVELVRRIEKSESS
notes: Prey from an expression library of fetal human brain origin; also called PGR1 (a portion corresponding to amino acid positions 35 to 127); prey clone
